Data published in patent publication US20190077860A1 (EISAI R AND D MANAGEMENT, published 2019).
Substitutions are numbered along the chain they refer to.

T1: human EphA8 extracellular region-SEAP-His protein (human, UniProt P29322 28-542)
T1 construct: extracellular domain; also called hEphA8-SEAP-His
T1 sequence (looked up): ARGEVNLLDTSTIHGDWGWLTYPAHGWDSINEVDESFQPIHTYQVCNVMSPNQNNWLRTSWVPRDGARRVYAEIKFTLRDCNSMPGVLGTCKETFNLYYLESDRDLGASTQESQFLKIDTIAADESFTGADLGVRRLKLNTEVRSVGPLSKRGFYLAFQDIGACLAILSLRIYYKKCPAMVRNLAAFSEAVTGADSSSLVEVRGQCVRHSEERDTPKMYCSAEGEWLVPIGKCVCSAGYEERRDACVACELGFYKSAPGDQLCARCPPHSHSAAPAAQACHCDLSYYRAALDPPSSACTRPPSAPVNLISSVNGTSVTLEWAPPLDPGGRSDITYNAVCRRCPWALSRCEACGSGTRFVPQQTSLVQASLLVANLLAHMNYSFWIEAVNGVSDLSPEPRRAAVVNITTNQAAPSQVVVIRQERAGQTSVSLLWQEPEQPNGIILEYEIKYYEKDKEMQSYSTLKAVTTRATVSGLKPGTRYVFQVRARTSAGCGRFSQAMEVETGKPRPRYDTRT

T2: human EphA1 extracellular region-SEAP-His protein (human, UniProt P21709 26-547)
T2 construct: extracellular domain; also called hEphA1-SEAP-His
T2 sequence (looked up): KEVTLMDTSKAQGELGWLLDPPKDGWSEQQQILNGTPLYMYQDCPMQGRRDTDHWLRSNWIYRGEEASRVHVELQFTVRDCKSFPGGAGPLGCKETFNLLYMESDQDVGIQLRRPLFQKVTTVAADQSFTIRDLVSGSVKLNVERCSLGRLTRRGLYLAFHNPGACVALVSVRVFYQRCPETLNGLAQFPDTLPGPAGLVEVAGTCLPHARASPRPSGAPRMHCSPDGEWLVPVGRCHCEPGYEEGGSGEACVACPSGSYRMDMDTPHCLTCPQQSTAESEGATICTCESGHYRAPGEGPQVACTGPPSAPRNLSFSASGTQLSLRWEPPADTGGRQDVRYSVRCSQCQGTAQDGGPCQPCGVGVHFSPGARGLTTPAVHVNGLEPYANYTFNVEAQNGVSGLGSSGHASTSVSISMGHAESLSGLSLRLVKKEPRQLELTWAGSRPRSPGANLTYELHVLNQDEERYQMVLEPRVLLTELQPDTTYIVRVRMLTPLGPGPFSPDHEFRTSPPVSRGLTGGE

T3: human EphB6 extracellular region-SEAP-His protein (human, UniProt O15197 32-594)
T3 construct: extracellular domain; also called hEphB6-SEAP-His
T3 sequence (looked up): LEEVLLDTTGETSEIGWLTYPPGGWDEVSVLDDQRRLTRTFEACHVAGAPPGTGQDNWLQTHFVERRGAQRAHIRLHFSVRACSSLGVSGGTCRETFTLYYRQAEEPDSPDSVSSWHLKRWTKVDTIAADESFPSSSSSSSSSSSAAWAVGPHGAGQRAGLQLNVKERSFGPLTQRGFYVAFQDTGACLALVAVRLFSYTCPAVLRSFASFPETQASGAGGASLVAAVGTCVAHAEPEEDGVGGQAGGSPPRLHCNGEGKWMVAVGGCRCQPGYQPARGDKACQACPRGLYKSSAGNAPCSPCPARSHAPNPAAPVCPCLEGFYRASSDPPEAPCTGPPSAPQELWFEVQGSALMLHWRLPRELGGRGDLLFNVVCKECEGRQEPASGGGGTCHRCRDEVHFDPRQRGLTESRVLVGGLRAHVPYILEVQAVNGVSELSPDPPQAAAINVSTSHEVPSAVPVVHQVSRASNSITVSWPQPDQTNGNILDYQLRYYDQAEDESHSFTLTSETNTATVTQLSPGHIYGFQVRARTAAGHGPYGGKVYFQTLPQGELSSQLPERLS

B1: humanized antibody No. 145 (antibody, human IgG2)
heavy: QVQLVQSGSELKKPGASVKVSCKASGYTFTDYSMHWVRQAPGQGLKWMGWINTETGEPTYADDFKGRFVFSLDTSVSTAYLQISSLKAEDTAVYYCARIPLYYYGSRYWYFDVWGQGTTVTVSSASTKGPSVFPLAPSSRSTSESTAALGCLVKDYFPEPVTVSWNSGALTSGVHTFPAVLQSSGLYSLSSVVTVPSSNFGTQTYTCNVDHKPSNTKVDKTVERKSCVECPPCPAPPAAAPSVFLFPPKPKDTLMISRTPEVTCVVVDVSHEDPEVQFNWYVDGVEVHNAKTKPREEQFNSTFRVVSVLTVVHQDWLNGKEYKCKVSNKGLPAPIEKTISKTKGQPREPQVYTLPPSREEMTKNQVSLTCLVKGFYPSDIAVEWESNGQPENNYKTTPPMLDSDGSFFLYSKLTVDKSRWQQGNVFSCSVMHEALHNHYTQKSLSLSPG
light: DIQMTQSPSSLSASVGDRVTITCRASENIYRNLAWYQQKPGKAPKLLLYAATNLADGVPSRFSGSGSGTDYTLTISSLQSEDFATYYCQHFWGTPWTFGQGTKVEIKRTVAAPSVFIFPPSDEQLKSGTASVVCLLNNFYPREAKVQWKVDNALQSGNSQESVTEQDSKDSTYSLSSTLTLSKADYEKHKVYACEVTHQGLSSPVTKSFNRGEC
notes: human Ig kappa; also called L1-5/HK2
B2: humanized antibody No. 134 (antibody, human IgG2)
heavy: B1 heavy with D62Q, D63G, K65T
light: EIVMTQSPATLSVSPGERATLSCRASENIYRNLAWYQQKPGQSPRLLIYAATNLADGIPARFSGSGSGTEYTLTISSLQSEDFAVYYCQHFWGTPWTFGQGTKVEIKRTVAAPSVFIFPPSDEQLKSGTASVVCLLNNFYPREAKVQWKVDNALQSGNSQESVTEQDSKDSTYSLSSTLTLSKADYEKHKVYACEVTHQGLSSPVTKSFNRGEC
notes: human Ig kappa; also called L2-4/HA2
B3: humanized antibody No. 132 (antibody, human IgG2)
heavy: B1 heavy with V2I, D62Q, D63G, K65T
light: B2 light
notes: human Ig kappa; also called L2-4/HA4
B4: humanized antibody No. 153 (antibody, human IgG2)
heavy: B1 heavy with D62Q, D63G, K65T
light: B1 light
notes: human Ig kappa; also called L1-5/HA2
B5: humanized antibody No. 151 (antibody, human IgG2)
heavy: B1 heavy with V2I, D62Q, D63G, K65T
light: B1 light
notes: human Ig kappa; also called L1-5/HA4
B6: humanized antibody No. 156 (antibody, human IgG2)
heavy: B1 heavy with V2I, D62Q, D63G, K65T
light: B1 light with K45Q, S80P
notes: human Ig kappa; also called L1-6/HA4

What was measured:
Experiment in all cases: ELISA
[1] = target: T1, human EphA8 extracellular …
Method: (§1) Each well of a 96-well plate (Nunc) was coated with a rabbit anti-6-His antibody (Bethyl Laboratories). Each well was […] After washing with 0.05% Tween 20/PBS (Nacalai Tesque) three times, the SEAP-His protein of human EphA1, EphA2, EphA3, EphA4, EphA5, EphA6, EphA7, EphA8, EphA10, EphB1, EphB2, EphB3, EphB4, or EphB6 was added (final concentration: 1 nM) to each well and incubated at room temperature for 1 hour. After washing three times, the humanized antibody was added to each well and incubated at room temperature for 1 hour. After washing three times, a horseradish peroxidase-labeled donkey […] antibody (Jackson ImmunoResearch Laboratories) was added thereto and incubated at room temperature for 1 hour. After washing three times, TMB Microwell Peroxidase Substrate System (Kirkegaard & Perry Laboratories (KPL)) was added to each well. After confirmation of moderate color development, an equal amount of a reaction stopping solution (1N H₂SO₄, Wako Pure Chemical Industries) was added to each well. The absorbance at 450 nm was read using a microplate reader (Thermo Fisher Scientific).

[2] = target: T2, human EphA1 extracellular …
Method: as §1

[3] = target: T3, human EphB6 extracellular …
Method: as §1

[4] = target: T4, human EphA2 extracellular region-SEAP-His protein (human, UniProt P29317 24-537)
T4 construct: extracellular domain; also called hEphA2-SEAP-His
Method: as §1

[5] = target: T5, human EphA5 extracellular region-SEAP-His protein (human, UniProt P54756 25-573)
T5 construct: extracellular domain; also called hEphA5-SEAP-His
Method: as §1

[6] = target: T6, human EphA4 extracellular region-SEAP-His protein (human, UniProt P54764 20-547)
T6 construct: also called hEphA4-SEAP-His
Method: as §1

T4 sequence (P29317 24-537): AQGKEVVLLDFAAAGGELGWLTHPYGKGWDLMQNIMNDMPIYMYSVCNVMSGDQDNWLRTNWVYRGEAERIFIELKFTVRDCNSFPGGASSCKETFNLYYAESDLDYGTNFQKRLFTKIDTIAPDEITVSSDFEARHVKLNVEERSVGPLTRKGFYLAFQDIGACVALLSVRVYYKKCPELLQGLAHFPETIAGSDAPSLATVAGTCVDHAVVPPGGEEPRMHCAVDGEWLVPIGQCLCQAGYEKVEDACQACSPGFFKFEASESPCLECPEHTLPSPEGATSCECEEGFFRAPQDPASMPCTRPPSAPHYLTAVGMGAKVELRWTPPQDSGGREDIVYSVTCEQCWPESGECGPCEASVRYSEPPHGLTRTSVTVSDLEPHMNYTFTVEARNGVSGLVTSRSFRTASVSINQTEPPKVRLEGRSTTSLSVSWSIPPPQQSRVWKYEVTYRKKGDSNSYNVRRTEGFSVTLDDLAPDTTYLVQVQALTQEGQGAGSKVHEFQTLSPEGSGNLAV
T6 sequence (P54764 20-547): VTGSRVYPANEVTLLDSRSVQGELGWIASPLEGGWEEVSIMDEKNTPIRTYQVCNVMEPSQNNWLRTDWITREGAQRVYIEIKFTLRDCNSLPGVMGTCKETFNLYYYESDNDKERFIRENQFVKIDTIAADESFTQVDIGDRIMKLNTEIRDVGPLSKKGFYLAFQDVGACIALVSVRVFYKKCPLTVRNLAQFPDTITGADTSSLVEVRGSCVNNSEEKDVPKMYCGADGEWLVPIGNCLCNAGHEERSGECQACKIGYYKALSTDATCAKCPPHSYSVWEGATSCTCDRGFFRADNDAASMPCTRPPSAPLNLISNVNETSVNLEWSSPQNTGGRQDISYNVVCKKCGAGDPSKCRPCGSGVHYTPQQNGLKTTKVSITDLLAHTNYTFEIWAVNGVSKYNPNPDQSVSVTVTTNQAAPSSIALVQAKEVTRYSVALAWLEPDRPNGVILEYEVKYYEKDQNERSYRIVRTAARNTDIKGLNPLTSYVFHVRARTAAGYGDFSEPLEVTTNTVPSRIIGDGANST
T5 sequence (P54756 25-573): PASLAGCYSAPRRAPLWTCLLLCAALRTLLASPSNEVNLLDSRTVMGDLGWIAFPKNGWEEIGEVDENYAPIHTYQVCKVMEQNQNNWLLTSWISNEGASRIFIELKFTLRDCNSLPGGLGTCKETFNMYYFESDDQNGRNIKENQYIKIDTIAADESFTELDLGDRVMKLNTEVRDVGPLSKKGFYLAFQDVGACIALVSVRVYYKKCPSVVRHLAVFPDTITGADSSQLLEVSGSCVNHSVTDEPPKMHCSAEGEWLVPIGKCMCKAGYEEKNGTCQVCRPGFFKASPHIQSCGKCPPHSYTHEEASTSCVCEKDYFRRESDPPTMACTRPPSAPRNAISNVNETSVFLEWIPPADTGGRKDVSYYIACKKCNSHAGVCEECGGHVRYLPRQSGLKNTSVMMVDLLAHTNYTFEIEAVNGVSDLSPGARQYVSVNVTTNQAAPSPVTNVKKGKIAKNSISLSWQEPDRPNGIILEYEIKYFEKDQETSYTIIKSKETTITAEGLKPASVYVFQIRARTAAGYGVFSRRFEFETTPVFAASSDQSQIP

| Binder | A450 as % of hEphA4-SEAP-His [1] [%] | A450 as % of hEphA4-SEAP-His [2] [%] | A450 as % of hEphA4-SEAP-His [3] [%] | A450 as % of hEphA4-SEAP-His [4] [%] | A450 as % of hEphA4-SEAP-His [5] [%] | A450 as % of hEphA4-SEAP-His [6] [%] |
| --- | --- | --- | --- | --- | --- | --- |
| B1 | 6.6 | 6.7 | 6.6 | 6.5 | 6.6 | 100 |
| B2 | 5.7 | 5.1 | 5.2 | 5 | 5.2 | 100 |
| B3 | 4.7 | 4.8 | 4.7 | 4.8 | 4.7 | 100 |
| B4 | 6.1 | 6.3 | 6.2 | 6 | 6.1 | 100 |
| B5 | 6.9 | 7.1 | 7.1 | 6.9 | 7 | 100 |
| B6 | 5.5 | 5.7 | 5.7 | 5.5 | 5.7 | 100 |
